Test: soluble on expression in E. coli; label from the status in PepcDB or PDB records

| Sequence | soluble on expression in E. coli |
| --- | --- |
| MSLTVERVSAPTPAAFVDAANAAFRNGAVLSVQARCEVEYNGRTSGYLGDGDRLLVAKPDGTFLVHQPTGHKPVNWMPGGGTVEARTSQGDAVLLARRSNPTERVETRLHEVYGVTRFDAEDGATYEESGTEAEMHEYIEANPDALEAGLRIVEHERETKYGFIDFYAVDGDGTPVVIEVKRIQATLNHFDQLKRYVDRYAETNDDVRGMLVAPSASERVTRALRDNGLEFVALAEFGLDAKGATEAKLTDFEGHHHHHH | soluble |
| MSLVEDGKATLGLRNFYINRNFTNPSNPQSKAEEWTQSFILDARSGFTEGPIGFGVDVLGLWSVKLDGGGGTYGTALLPRHDDGRPADDYGRLAVAGKARISKTELKIGEWMPVLPILRSDDGRSLPQTFRGGQVTSNEIAGLTLYGGQFRGNSPRNDASMEDMSYGGGVSDRFNFVGGEYKFNQDRTQVGLWNAVLKDVYQQQYLQLSHSQPVGDWTLGANLGYFHGDEDGSERAGQLDNKTYSGMFSAKYGGSTFWVGLQKVDGDTWMRVNGTSGGTLANDSYNSSFDNANERSWQVRHDFNFVTVGVPGLTLMNRYISGRDVHSGGVTDGKEWVRETELAYVIQSGAFKDLSVKWRNSSIRRDYSNNEFDENRLIFNYPLSLLEGHHHHHH | soluble |
| MSLVLYRKLKKAKSLEEIKNTFKNLTKSISSLVMRGMHFYDLSNILTEIYDYLVVKVIEMEKERFEREWGKLPSFAWVHMGSSARKEQVIATDQDNAIVHEGDGEGLSQFAESVNNALDYVGIPKCRGGYMAMNWCKSVEEWKSVFSEWFIKLTPDNLRFLSVFLDLRVIYGDEKLCKELIEHIKREHTSQSLRYLAYDATIAEPPLGLFGLRMKKEIDLKMNGIYPIVNGVRVLALEHGLIEVTNTRERLEELKEAHVMDADLAESLKETYEFLQDLRLRLQAKEVVEGKKADNVIKVSEIDRIEAFVLKEGFKVIKKFQNFLKGHYSIERGLEGHHHHHH | soluble |
| MSLVMDSLIIKQLIKSTFDIPLQVTYPNGNIETYNGSNPHVKLKLNKNFSVSELSKDPSIVLGEAVMDGDIEIYGSIQELILSAYRCGDSFLRNSKFSKLIPKQFHDKKHSKSDIQKHYDIGNDFYKLWLDDTMTYSCAYFKHENDSLEQAQLNKVHHILNKLNAQPGGKLLDIGCGWGTLIITAAKEYGLNATGITLSEEQASFITKRIKEEGLENKVTVLIKDYRDIRETYDYITSVGMFEHVGKENLSQYFQTISKRLNINGLALIHGITGQVGGNHGSGTNSWINKYIFPGGYIPRLTENLNHIASAGLQIADLEPLRRHYQKTLELWTKNFHNALPEVQKTHDKRFINMWDLYLQSCAASFESGNIDIFQYLLSKGVSKDTMPMTRDYMYSANEGHHHHHH | soluble |
| MSLVNSLTHYEILRIPSDATQDEIKKAYRNRLLNTHPDKLSKSIHDTVSNVTINKIQDAYKILSNIKTRREYDRLILENYKRQGFHNCGDGLDEFSLDDFSFDEDKLEFMMNCPRCQFVGGFHFSESLLDECIDNVDAMERSHSGYQLLTQCSACSLWLKVNFDIEEEQEGQ | not soluble |
| MSLVPAFPHSTSPTTTVIAVPPALSLPVIETDFPRQLHPYWPRLQEKTRSWLLEKRLMPADKVEEYADGLCYTDLMAGYYIGAPDEVLQAIADYSAWFFVWDDRHDRDVIHRRATAWRQLRFQLHTALDSPRDHLHHRDPLVAGFADSMVRLYSFLGKKWNARFACHFHAVIEAYDREFHNRTRGIVPTVEEYLELRRLTFAHRIWTDLLEPSARHEIPAGVREHPGYRRAALLSQEFAAWYNDLCSLPKEIAGDEVHNLGISLIHHEGLTLEEAVTEVRRRVEECIAEFLVAEKEAVHLADGLADGTRAGHELSDAVKACVANMRNWFSTVYWFHHESGRYRVDSWDDRSTPPYVNNEAAGEGHHHHHH | soluble |
| MSLVQSINTKVDLTIDATAYTGLTDYGKIMIGDKGFEFFNSRDVRKFVQIPWEEVDQVIVSVMLKGKWIPRYAIKTKRNGTYTFASKRPKEVLRKIRVYVDPANMVSSLSFFDVMKRSFRSIFSKKKNKNKEGHHHHHH | not soluble |
| MSLVRQLIGRTLSGTVTMCAGPFRSVLNMLHRPQWETAMIAPLPAVDMRVICAGHVNWDVTLHVDHLPKPDGEGRITDRSQSSGGSASNAAVALAGLDADPLVLGSVGRDDHGTMARRELAATGVETLLIESDEATAVKYLIVDENGDVAVLGNDGANEAFNASDLPAETLAEADHLHLTGQNPTTAATLARDAAAADVPVSFDPGRRLPYRDYSSVLSHAEILFCNDREADHARDSGLFETVPTVVVKHGDCGATAHIGDQTVTNAGYPIESVDTAGAGDAFAAGYLLASAQETDPERALAVANACGALAAQSSGARTTLDWESVWELVDSGQEGHHHHHH | soluble |
| MSLVSSTLKSVSRCRHFRIDGFWLQTVMSDIFSHTALSNLAEFSVSELSGSIKRTVETAFEQVRVRGEISGYRGPHSSGHAYFSLKDDRARIDAVIWKGTFSRLKFRPEEGMEVIATGKITTFPGSSKYQIVIESLEPAGAGALMALLEDRRRRLAAEGLFDSARKRPLPFMPRVIGVVTSPTGAVIRDILHRISDRFPVHVVVWPVKVQGEGSGEEVANAIRGFNALKPGGDIARPDVLIVARGGGSLEDLWSFNDEIVVRAAAESEIPLISAVGHETDTTLIDYAADVRAPTPTGAAEMAVPVRAELEAQLSGLAARLSGSVSRQMDNRRQGVRALVRALPSLDQLLALPRRRFDEAASGLGRGLELTTLNKRRAFERSASGLRPETLLNGLKHHRQRITERMHRAETLVERRLLQGKGRVDSFDSALRSLPARLLGQLERQKERVVTAARRADTAVLHRMAQNRSGLAAHDRILQSLSYKNVLNRGYAVIRDEENRPLTRAAAIASGAAVSMEFADGRVSAITTGEGTPAPETAAAPKKKPAKPASSDPGNQGNLFEGHHHHHH | not soluble |
| MSLVVVSDVFVSVRGRVMLNVEAMNMTESVGNYVKHRRVPVVLPDAKYTTYFVPAISGESIAHGFQEVLAEVGKKNGLKVCKLCEKGIFLKSTNENVFKESFSSDPPKDDFEFEKTVIENCIVEDVGGFLYAPRAGGNVKRTSNFYTGYMIPVRESIEGAVIEPQLHSRYALGTPFVEGGQGQMIYYVELSSAVYTFSFDLDTRYIGRTTFSYEKAGTEVGKRSERINAALEALKKFLIEFAFGAKKTRFLPVMEWDSLVVAVSDDVWTVPSPYTAGYIDNARKKKEKVNFNTKLFVYPEGGSFEEVVVEAIEEAKERAGKEGHHHHHH | soluble |
| MSLVYLNSNFLYGDDFEPKKGTLVIEDEIIKGFTSEHHSNVLNYKGLVIPPLINSHTHIGDNSIKDIGIGKSLDELVKPPNGLKHKFLNTCSEKELVQGMSEGLYDLENNGIKAFCDFRENGLNGINSLKSAFEDSNVSIKPIILGRPTQREENLLKDEISIILDNCDGLGLSGSNEYSDQELKFICKLVNKKILSIHANEHKGSVQYSKEKYGISEIERLINLNIKPDFLIHATHSSSDDLSLLNENKIPVVVCPRANASFNVGLPDIPKMLEYNLKLGIGTDNFMANSPSIFKEMDFIYKIYHVDPKEILKMATINGAEILGLQNTGVIKEGYIPTFTFIKNGNILKTSKNIAASVVTRLENGDVDSKFLVCEGHHHHHH | not soluble |
| MSLVYMAINAVAGTIREFSPKDIESVYRIAQTSLTEYYTQALILDLHREWPESFMVYTVAGSVVGFIVGSKYSRTEARILLFAVDERFRRMGVGSALMDAFLSLCREQNMLSVRLEVRTDNDEAIRFYKKYGFVITAMLPNYYSDSSNAYTMWRIVEGHHHHHH | not soluble |
| MSLYNFLGKELKSPLIIGSGPLTYSAAGCKILSDAGAGAVVTKTIRKERAINPAPHMVRNTANALLNNEKWTDFEPEQWIDFEIPQMKRDGTVCIASIGHTIEESSELVEKVANAGADFIELVSYDYRDLIPMLKDAKERVNIPVIVKLPPMIDEIGDFAKKLEEAGADAITACDSVGPAFRIDIETGQPLLGGNGIGYLSGETIKPITLQRIYEIKKQVNIPIIGLGGCVSGDDALEMIMAGADFVGICSVVILKGAQVISKIHDDLKSNLNRLGYNTIENACGIVHNHMGDVNEREGHHHHHH | soluble |
| MSLYRELMQKKNVRPYVLMARFGLEKENQRSTREGLLATTEHPTVFGNRSYHPYIQTDFSETQLELITPVANSGTEMLRFLDAIHDVARRSIPEDEMLWPLSMPPQLPTKDEEIKIAKLDQYDAVLYRRYLAKEYGKRKQMVSGIHFNFEYDQALIQQLYDEQSEVTDCKQFKTKVYMKVARNFLRYRWLITYLFGASPVSEDRYFRVYDDQPQEPVRSIRNSTYGYRNHDNVKVSYASLERYLEDIHRMVENGLLSEEKEFYAPVRLRGGKQMSDLPKTGIRYIELRNLDLNPFSRLGIVEDTVDFLHYFMLYLLWTDEKEEADEWVKTGDIFNEQVALGHPHETIKLIAEGDRIFSEMIDMLDALGIRKGKEVVGKYYQQLRNPQDTVSGKMWTIIQENSNSELGNIFGNQYQSMAFERPYQLAGFREMELSTQIFLFDAIQKGLEIEILDEQEQFLKLQHGEHIEYVKNANMTSKDNYVVPLIMENKTVTKKILSAAGFHVPGGEEFSSFIEAQEAHLRYANKAFVVKPKSTNYGLGITIFKEGASLEDFTEALRIAFKEDTAVLIEEFLPGTEYRFFVLDNDVKAIMLRVPANVTGDGKHTVEELVAAKNSDPLRGTNHRAPLELIQLNDLEKLMLKEQGLTIYSVPEKEQIVYLRENSNVSTGGDSIDMTDVIDDSYKQIAIEAVAALGAKICGIDLIIPDKDVKGTRDSLTYGIIEANFNPAMHMHVYPYAGQGRRLTMDVLKLLYPEVVQEGGSHHHHHH | soluble |
| MSLYRHIPLVALSLFSSLFLAACGNGTPPPAAARPAIVVQPQPAGEVSQAFPGEIRARHEPELAFRIGGKVIRRLVEVGERVKKDQPLAELDPQDVRLQLEAARAQVSAAEANLQTVRAEYRRYRTLLDRNLVSHSQFENIQNSYRAGEARLKQIRAEFNVADNQAGYAVLRSPQDGVIASRRVEVGQVVAAGQTVFSLAADGEREVLIGLPEHSFERFRIGQPVSVELWSQRDRRFAGHIRELSPAADPQSRTFAARVAFDDRATPAELGQSARVYVAAAEAVPLSVPLSALTAEAGQAFVWVVEPGSSTLRRQPVRTGPYAEDRVPVLEGLKAGDWVVATGVQVLREGQQVRPIDRANRTVKLAAKEEGHHHHHH | soluble |
| MSNAREIRSKVQSVKNTQKITGAMELVAASKMRGAIVKMNNVRPYVESANTIIKNVTAASIDYPNPYLFDRDVKRVGYIVISTDRGLCGGLNINLFKHVLKEIKNNIEDRVGVDVCVIGSKAENFFAKLKDVNIVATAHYNDKDKEGSIRAIGGAVKVMLDKFTAGEIDRLYMSSNQFVSTIKQRPRLQTLLPIQDIFSAEEIKANKEKATKGHWDYIYERDIEEVLNALFIRYIEAQVRGAILENAACEQAARMMAMKNATDNASDIIDQLKLDYNKVRQAMITQELAEICSGAAAV | not soluble |
| MSNIVYLTVTGEQQGSISAGCGTSESTGNRWQSGHEDEIFTFSLLNNINNTGLGSQFHGITFCKLIDKSTPLFINSINNNEQLFMGFDFYRINRFGRLEKYYYIQLRGAFLSAIHHQIIENQLDTETITISYEFILCQHLIANTEFSYLALPENYNRLFLPNSKNQTNNRFKTLNSKAIGRLLAAGGVYNGNIEGFRDTAEKLGGDAIKGYDQILNEKTAGIAIATASILLTKRSNVDTYTEINSYLGKLRGQQKLLDGIDIIEIIYIKRPSKDLANLRKEFNKTVRKNFLIKLAKTSEASGRFNAEDLLRMRKGNVPLNYNVHHKLSLDDGGTNDFENLVLIENEPYHKVFTNMQSRIAKGILVGESKITPWAIPSGSIYPPMKNIMDHTK | not soluble |
| MSNIYDWSLKADENAHSDNIINWAEGQPPSSVNDSARAMMQRVREYLADNGGSLDSTFIVNAEDKTTSIIVTTASPIEEYKNDIIIRFKAGGVNVGTTTVIVNNIEEKLLYKATNAGVTPLEGGELQRDAIYEMVYNKDVSMEDHGGWYLLNPTPLPPPKIETFPSGFIATFAMQEVPSGWLLCDGAVYERKDYPQLFKAIGDKWGKDSDTTFKVPDFRGMFLRGFDDGRGLDAGRQFADQQHDSIRSHTHIGTIEEAGEHTHKFQYYGVGWDSGDIGRRNPFYYRQSSTGVTQSAGAHTHDISLSPTGEAETRPVNTTVVYAIKS | not soluble |

— the DeepSol protein solubility set
